Kd data for 4 molecules are collected here from publication PMC12232886 (2025).

Experiment [1] deals with T1, Fyn SH3 (Homo sapiens, UniProt P06241). Briefly: ITC. Background: ITC needs no label: the signal is the heat of the interaction.
For experiment [2], the target named is T1, Fyn SH3. Briefly: NMR titration.

T1 sequence (P06241 79-146): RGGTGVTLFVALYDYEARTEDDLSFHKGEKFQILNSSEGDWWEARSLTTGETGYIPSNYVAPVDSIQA

B1: Tau 151-243 (protein)
chain: SGMPGAPLLPEGPREATRQPSGTGPEDTEGGRHAPELLKHQLLGDLHQEGPPLKGAGGKERPGSKEEVDEDRDVDESSPQDSPPSKASPAQDG
Regarding B1, binding with Fyn SH3 [1] was put at a Kd of 11 µM. That is a double-digit micromolar value. PSGTGPEDTEGGRHA [Tau 170-184]: the Kd with Fyn SH3 [2] is 127 µM.

QDGRPPQTAAREATS [Tau 241-255] had a Kd with Fyn SH3 [2] of 327 µM. The same measure, in the same setting: next, ERPGSKEEVDEDRDV [Tau 210-224]: 163 µM.

Usually Kd stands for the equilibrium constant for the complex coming apart. Read a low Kd as a tighter complex.
